B1: Myocilin, Q99972 (parent)
chain: MRFFCARCCSFGPEMPAVQLLLLACLVWDVGARTAQLRKANDQSGRCQYTFSVASPNESSCPEQSQAMSVIHNLQRDSSTQRLDLEATKARLSSLESLLHQLTLDQAARPQETQEGLQRELGTLRRERDQLETQTRELETAYSNLLRDKSVLEEEKKRLRQENENLARRLESSSQEVARLRRGQCPQTRDTARAVPPGSREVSTWNLDTLAFQELKSELTEVPASRILKESPSGYLRSGEGDTGCGELVWVGEPLTLRTAETITGKYGVWMRDPKPTYPYTQETTWRIDTVGTDVRQVFEYDLISQFMQGYPSKVHILPRPLESTGAVVYSGSLYFQGAESRTVIRYELNTETVKAEKEIPGAGYHGQFPYSWGGYTDIDLAVDEAGLWVIYSTDEAKGAIVLSKLNPENLELEQTWETNIRKQSVANAFIICGTLYTVSSYTSADATVNFAYDTGTGISKTLTIPFKNRYKYSSMIDYNPLEKKLFAWDNLNMVTYDIKLSKM

Variants of: B1
Details: Homo sapiens, pH 6, Thermal, CD, Sodium acetate 10mM, reversible: no, structure 4WXQ, whole UniProt chain shown

| Variant | Tm (CaCl2 1mM) [°C] | change of melting temperature, mutant - wild type (higher = more stable) (CaCl2 1mM) [°C] | Tm (CaCl2 10mM) [°C] | change of melting temperature, mutant - wild type (higher = more stable) (CaCl2 10mM) [°C] |
| --- | --- | --- | --- | --- |
| G367R | 42.7 | -10.3 | 50.9 | -8.7 |
| T377M | 44.3 | -8.7 | 50.6 | -9 |
| D380A | 46.6 | -6.4 | 45.1 | -14.5 |
| D384A | 42.5 | -10.5 |  |  |
| E385A | 39.7 | -13.3 | 49.7 | -9.9 |
| K423E | 34.2 | -18.8 | 43.2 | -16.4 |
| V426F | 41.5 | -11.5 | 49.9 | -9.7 |
| A427T | 48.3 | -4.7 | 55.2 | -4.4 |
| C433R | 40.4 | -12.6 | 49.4 | -10.2 |
| Y437H | 40.3 | -12.7 | 48.6 | -11 |
| I477N | 37.7 | -15.3 |  |  |
| I477S | 39.7 | -13.3 | 48.2 | -11.4 |
| N480K | 42.4 | -10.6 | 48.1 | -11.5 |
| P481L | 45.5 | -7.5 | 51.2 | -8.4 |
| I499F | 42.8 | -10.2 | 50.4 | -9.2 |
| S502P | 41 | -12 | 49.9 | -9.7 |

— FireProtDB (doi:10.1074/jbc.m112.408906)
